From patent US20250326842A1

How the values were obtained:
FcγRIIA H131 (human) = FcγRIIA H131 (human) (UniProt P12318); test: Biacore, KD from equilibrium analysis
FcγRIIA R131 (human) = FcγRIIA R131 (human) (UniProt P12318); test: Biacore, KD from equilibrium analysis
FcγRIIB (human) = FcγRIIB (human) (UniProt P31994); test: Biacore, KD from equilibrium analysis
FcγRIIIA F158 (human) = FcγRIIIA F158 (human) (UniProt P08637); test: Biacore, KD from equilibrium analysis
FcγRI (human) = FcγRI (human) (UniProt P12314); test: Biacore, KD from kinetic constants (koff/kon)
Human C1q (human) = Human C1q (human) (UniProt P02745); test: ELISA: plate coated with increasing amounts of antibody, human C1q at 8 µg/mL, anti-C1q antibody detection
Sequence of Human C1q (human) (P02745 23-245 limits assumed, chain 1 of 3): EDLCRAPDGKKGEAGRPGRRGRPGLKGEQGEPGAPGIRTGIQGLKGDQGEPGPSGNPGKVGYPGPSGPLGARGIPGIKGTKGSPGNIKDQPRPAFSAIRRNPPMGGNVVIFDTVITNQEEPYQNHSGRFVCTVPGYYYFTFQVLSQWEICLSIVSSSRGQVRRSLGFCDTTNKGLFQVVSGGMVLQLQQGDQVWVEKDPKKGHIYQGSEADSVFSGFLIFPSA
Sequence of Human C1q (human) (P02746 28-253 limits assumed, chain 2 of 3, further chain): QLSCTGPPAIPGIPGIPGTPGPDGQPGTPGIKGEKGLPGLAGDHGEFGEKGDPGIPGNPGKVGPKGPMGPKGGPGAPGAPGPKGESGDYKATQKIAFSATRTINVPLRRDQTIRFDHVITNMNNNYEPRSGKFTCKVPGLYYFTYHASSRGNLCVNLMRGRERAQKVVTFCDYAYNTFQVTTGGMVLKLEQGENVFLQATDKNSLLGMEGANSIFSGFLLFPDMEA
Sequence of Human C1q (human) (P02747 29-245 limits assumed, chain 3 of 3, further chain): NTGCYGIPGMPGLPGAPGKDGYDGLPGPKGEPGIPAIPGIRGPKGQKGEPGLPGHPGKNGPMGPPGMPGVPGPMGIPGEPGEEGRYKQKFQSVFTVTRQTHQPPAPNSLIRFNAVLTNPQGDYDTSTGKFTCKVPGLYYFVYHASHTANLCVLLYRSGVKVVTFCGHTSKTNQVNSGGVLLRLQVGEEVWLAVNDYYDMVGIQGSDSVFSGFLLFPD

Sequence of FcγRIIIA F158 (human) (P08637 17-208 limits assumed): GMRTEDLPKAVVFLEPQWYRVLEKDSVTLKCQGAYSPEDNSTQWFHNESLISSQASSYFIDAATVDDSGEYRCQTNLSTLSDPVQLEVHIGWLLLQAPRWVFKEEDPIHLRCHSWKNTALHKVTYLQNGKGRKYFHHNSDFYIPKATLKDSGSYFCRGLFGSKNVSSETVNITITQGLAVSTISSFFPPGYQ
Sequence of FcγRIIA H131 (human) (P12318 36-218 limits assumed): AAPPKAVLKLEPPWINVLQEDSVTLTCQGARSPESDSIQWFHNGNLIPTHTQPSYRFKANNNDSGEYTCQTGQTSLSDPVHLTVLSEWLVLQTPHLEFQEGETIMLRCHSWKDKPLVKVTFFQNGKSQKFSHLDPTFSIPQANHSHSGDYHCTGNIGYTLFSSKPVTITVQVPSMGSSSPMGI
Sequence of FcγRI (human) (P12314 16-288 limits assumed): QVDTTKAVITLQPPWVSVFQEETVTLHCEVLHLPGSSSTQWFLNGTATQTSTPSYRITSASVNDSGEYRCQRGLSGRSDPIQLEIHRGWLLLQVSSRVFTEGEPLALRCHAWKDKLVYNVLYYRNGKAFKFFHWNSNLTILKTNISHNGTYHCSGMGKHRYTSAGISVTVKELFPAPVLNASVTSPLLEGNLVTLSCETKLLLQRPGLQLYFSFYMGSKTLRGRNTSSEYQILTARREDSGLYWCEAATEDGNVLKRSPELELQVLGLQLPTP
Sequence of FcγRIIA R131 (human) (P12318 36-218 H167R limits assumed): as the sequence (P12318 36-218 limits assumed) above, with H132R counted along it
Sequence of FcγRIIB (human) (P31994 46-217 limits assumed): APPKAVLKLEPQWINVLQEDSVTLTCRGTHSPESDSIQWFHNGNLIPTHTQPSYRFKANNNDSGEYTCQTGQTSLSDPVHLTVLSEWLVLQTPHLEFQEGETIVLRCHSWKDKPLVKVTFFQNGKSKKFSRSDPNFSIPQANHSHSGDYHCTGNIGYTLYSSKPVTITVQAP

Kd (FcγRIIA H131 (human)): 0.379 µM
Kd (FcγRIIA R131 (human)): 0.481 µM
Kd (FcγRIIB (human)): 3.12 µM
Kd (FcγRIIIA F158 (human)): 0.691 µM
Kd (FcγRI (human)): 0.0027 µM
EC50 (read off the curve) (Human C1q (human)): 2 µg/mL
Substance: HuIgG (antibody)
